The values below come from patent US20240165282A1, “CONFORMATIONAL CONSTRAINED SOMATOSTATIN RECEPTOR 3 PEPTIDE LIGANDS AND THEIR CONJUGATES AND USES THEREOF” (STARGET PHARMA LTD., priority 2021, published 2024).

What all share (assay): 125I-Tyr11-SRIF-14 displacement
For assay [1], the target named is human cloned somatostatin receptor 2 (human) (UniProt P30874).
The target of assay [2] is human cloned somatostatin receptor 3 (human) (UniProt P32745).
Assay [3] has as its target human cloned somatostatin receptor 1 (human) (UniProt P30872).
For assay [4], the target named is human cloned somatostatin receptor 4 (human) (UniProt P31391).
In assay [5] the target is human cloned somatostatin receptor 5 (human) (UniProt P35346).

*1 amine or outer side, *2 acyl side, *3 side chain or, on linkers, in order; H or OH if unused. Bridges are numbered along the chain shown (N, C = ends). [ ]: non-standard residue; d: D form. The star is where a group is joined. DOTA = O=C(O)CN1CCN(CC(=O)O)CCN(CC(=O)*)CCN(CC(=O)O)CC1; N(2-mercaptoethyl)Gly = O=C(CN(CCS[*:3])[*:1])[*:2]; Glutaryl = O=C(CCCC(=O)[*:2])[*:1]; Orn = NCCC[C@H](N)C(=O)O; Aoc = NCCCCCCCC(=O)O; CPT = camptothecin

human cloned somatostatin receptor 3 (human), sequence (P32745 whole entry): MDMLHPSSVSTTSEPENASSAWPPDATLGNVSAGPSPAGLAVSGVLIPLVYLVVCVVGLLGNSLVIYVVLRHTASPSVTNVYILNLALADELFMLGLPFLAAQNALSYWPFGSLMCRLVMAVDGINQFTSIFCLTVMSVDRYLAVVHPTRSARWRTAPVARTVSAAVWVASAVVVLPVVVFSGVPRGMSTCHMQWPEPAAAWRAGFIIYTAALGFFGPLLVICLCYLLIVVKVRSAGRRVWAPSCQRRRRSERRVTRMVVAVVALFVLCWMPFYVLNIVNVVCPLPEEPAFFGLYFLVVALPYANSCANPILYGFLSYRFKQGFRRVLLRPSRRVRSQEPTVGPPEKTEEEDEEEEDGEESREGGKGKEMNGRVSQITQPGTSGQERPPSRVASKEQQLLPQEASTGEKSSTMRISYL
human cloned somatostatin receptor 1 (human), sequence (P30872 whole entry): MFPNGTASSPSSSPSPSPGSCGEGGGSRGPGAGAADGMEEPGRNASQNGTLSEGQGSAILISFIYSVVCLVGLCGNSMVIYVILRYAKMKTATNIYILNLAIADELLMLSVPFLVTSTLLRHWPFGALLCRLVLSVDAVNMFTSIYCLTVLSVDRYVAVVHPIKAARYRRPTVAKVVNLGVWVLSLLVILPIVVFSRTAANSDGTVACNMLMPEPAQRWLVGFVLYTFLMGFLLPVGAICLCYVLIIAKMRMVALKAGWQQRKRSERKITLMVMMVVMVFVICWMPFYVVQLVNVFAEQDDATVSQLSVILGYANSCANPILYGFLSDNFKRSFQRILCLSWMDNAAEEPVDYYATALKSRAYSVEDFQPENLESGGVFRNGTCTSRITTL
human cloned somatostatin receptor 4 (human), sequence (P31391 whole entry): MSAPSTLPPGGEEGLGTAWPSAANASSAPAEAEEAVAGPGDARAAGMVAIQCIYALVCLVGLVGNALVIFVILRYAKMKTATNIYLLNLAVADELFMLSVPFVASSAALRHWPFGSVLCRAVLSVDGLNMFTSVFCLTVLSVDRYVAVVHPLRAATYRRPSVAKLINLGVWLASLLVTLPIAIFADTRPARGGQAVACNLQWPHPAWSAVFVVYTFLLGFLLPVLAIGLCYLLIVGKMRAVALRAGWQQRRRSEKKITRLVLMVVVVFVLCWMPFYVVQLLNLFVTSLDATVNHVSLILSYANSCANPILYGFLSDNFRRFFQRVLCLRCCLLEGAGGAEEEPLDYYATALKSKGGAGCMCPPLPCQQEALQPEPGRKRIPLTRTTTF
human cloned somatostatin receptor 2 (human), sequence (P30874 whole entry): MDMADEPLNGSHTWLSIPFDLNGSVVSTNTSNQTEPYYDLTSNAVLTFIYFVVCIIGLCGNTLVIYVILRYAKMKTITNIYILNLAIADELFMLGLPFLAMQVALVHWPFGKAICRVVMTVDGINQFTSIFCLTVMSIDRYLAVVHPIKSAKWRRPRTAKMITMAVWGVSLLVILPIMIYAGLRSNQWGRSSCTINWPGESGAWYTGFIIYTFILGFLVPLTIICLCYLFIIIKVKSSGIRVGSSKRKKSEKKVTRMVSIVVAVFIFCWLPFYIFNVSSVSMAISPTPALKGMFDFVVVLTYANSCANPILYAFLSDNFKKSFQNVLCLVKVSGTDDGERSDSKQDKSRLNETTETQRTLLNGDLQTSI
human cloned somatostatin receptor 5 (human), sequence (P35346 whole entry): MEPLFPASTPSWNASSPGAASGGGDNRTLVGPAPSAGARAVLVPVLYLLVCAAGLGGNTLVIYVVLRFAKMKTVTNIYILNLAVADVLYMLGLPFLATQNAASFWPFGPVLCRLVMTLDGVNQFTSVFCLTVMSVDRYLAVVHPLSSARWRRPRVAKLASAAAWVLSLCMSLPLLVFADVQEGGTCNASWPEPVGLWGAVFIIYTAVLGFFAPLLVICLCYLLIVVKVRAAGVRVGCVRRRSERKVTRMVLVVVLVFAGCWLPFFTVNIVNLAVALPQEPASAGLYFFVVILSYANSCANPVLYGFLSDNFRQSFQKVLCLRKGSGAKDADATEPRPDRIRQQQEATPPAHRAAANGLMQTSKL

Consider {DOTA}-[dF][Orn]CF[dW]KTF[N(2-mercaptoethyl)Gly]-NH2 (disulfide 3-9) [SEQ ID NO: 21], for which the % displacement at 1 nM came to 0% in assay [1]; 59% in assay [2]; 23% in assay [3]; 9% in assay [4]; 0% in assay [5]. For the same molecule, the % displacement at 10 nM in assay [1] was 2%; in assay [2] it was 93%; in assay [3], 22%; in assay [4], 9%; in assay [5], 0%.

B1: SEQ ID NO: 20 (peptide)
peptide: {DOTA}-F[dF]RCF[dW]KTF[N(2-mercaptoethyl)Gly]-NH2
modifications: disulfide 4-10
SMILES: C[C@@H](O)[C@@H]1NC(=O)[C@H](CCCCN)NC(=O)[C@@H](Cc2c[nH]c3ccccc23)NC(=O)[C@H](Cc2ccccc2)NC(=O)[C@@H](NC(=O)[C@H](CCCNC(=N)N)NC(=O)[C@@H](Cc2ccccc2)NC(=O)[C@H](Cc2ccccc2)NC(=O)CN2CCN(CC(=O)O)CCN(CC(=O)O)CCN(CC(=O)O)CC2)CSSCCN(CC(N)=O)C(=O)[C@H](Cc2ccccc2)NC1=O
Take B1: the % displacement at 1 nM came to 0% in assay [1]; 66% in assay [2]; 8% in assay [3]; 0% in assay [4]; 0% in assay [5]. The % displacement at 10 nM was 2% in assay [1]; 95% in assay [2]; 14% in assay [3]; 0% in assay [4]; 0% in assay [5].

B2: SEQ ID NO: 22 (peptide)
peptide: {DOTA}-[dF]EE[Orn]CF[dW]KTF[N(2-mercaptoethyl)Gly]-NH2
modifications: disulfide 5-11
SMILES: C[C@@H](O)[C@@H]1NC(=O)[C@H](CCCCN)NC(=O)[C@@H](Cc2c[nH]c3ccccc23)NC(=O)[C@H](Cc2ccccc2)NC(=O)[C@@H](NC(=O)[C@H](CCCN)NC(=O)[C@H](CCC(=O)O)NC(=O)[C@H](CCC(=O)O)NC(=O)[C@@H](Cc2ccccc2)NC(=O)CN2CCN(CC(=O)O)CCN(CC(=O)O)CCN(CC(=O)O)CC2)CSSCCN(CC(N)=O)C(=O)[C@H](Cc2ccccc2)NC1=O
For B2, the % displacement at 1 nM is 0% in assay [1]; 0% in assay [2]; 8% in assay [3]; 0% in assay [4]; 0% in assay [5]. For the same molecule, the % displacement at 10 nM in assay [1] was determined as 0%; in assay [2], 49%; in assay [3] it was 7%; in assay [4], 3%; in assay [5], 0%.

B3: SEQ ID NO: 23 (peptide)
peptide: {DOTA}-[dF]E[Orn]CF[dW]KTF[N(2-mercaptoethyl)Gly]-NH2
modifications: disulfide 4-10
SMILES: C[C@@H](O)[C@@H]1NC(=O)[C@H](CCCCN)NC(=O)[C@@H](Cc2c[nH]c3ccccc23)NC(=O)[C@H](Cc2ccccc2)NC(=O)[C@@H](NC(=O)[C@H](CCCN)NC(=O)[C@H](CCC(=O)O)NC(=O)[C@@H](Cc2ccccc2)NC(=O)CN2CCN(CC(=O)O)CCN(CC(=O)O)CCN(CC(=O)O)CC2)CSSCCN(CC(N)=O)C(=O)[C@H](Cc2ccccc2)NC1=O
For the molecule B3, the % displacement at 1 nM was determined as 0% in assay [1]; 19% in assay [2]; 4% in assay [3]; 0% in assay [4]; 0% in assay [5]. Moreover, the % displacement at 10 nM in assay [1] came out at 0%; in assay [2], 56%; in assay [3] it was 6%; in assay [4] it was 0%; in assay [5], 0%.
Regarding {CPT-Aoc}-[dF]RCF[dW]KTF[N(2-mercaptoethyl)Gly]-NH2 (disulfide 3-9) [SEQ ID NO: 27], the % displacement at 1 nM in assay [1] was determined as 0%; in assay [2], 12%; in assay [3] it was 0%; in assay [4], 0%; in assay [5] it was 0%. Also, the % displacement at 10 nM was determined as 0% in assay [1]; 51% in assay [2]; 3% in assay [3]; 0% in assay [4]; 0% in assay [5].
For the molecule {Niraparib-Glutaryl}-[dF]RCF[dW]KTF[N(2-mercaptoethyl)Gly]-NH2 (disulfide 3-9) [SEQ ID NO: 28], the % displacement at 1 nM came to 0% in assay [1]; 28% in assay [2]; 12% in assay [3]; 0% in assay [4]; 0% in assay [5]. The % displacement at 10 nM in assay [1] is 0%; in assay [2], 79%; in assay [3], 23%; in assay [4] it was 0%; in assay [5], 0%.

B4: SEQ ID NO: 25 (peptide)
peptide: {DOTA}-[dF]RCY[dW]KTF[N(2-mercaptoethyl)Gly]-NH2
modifications: disulfide 3-9
SMILES: C[C@@H](O)[C@@H]1NC(=O)[C@H](CCCCN)NC(=O)[C@@H](Cc2c[nH]c3ccccc23)NC(=O)[C@H](Cc2ccc(O)cc2)NC(=O)[C@@H](NC(=O)[C@H](CCCNC(=N)N)NC(=O)[C@@H](Cc2ccccc2)NC(=O)CN2CCN(CC(=O)O)CCN(CC(=O)O)CCN(CC(=O)O)CC2)CSSCCN(CC(N)=O)C(=O)[C@H](Cc2ccccc2)NC1=O
Consider B4, for which the % displacement at 1 nM in assay [1] was 0%; in assay [2] it was 65%; in assay [3], 1%; in assay [4], 5%; in assay [5], 6%. The % displacement at 10 nM in assay [1] is 0%; in assay [2], 94%; in assay [3] it was 15%; in assay [4] it was 8%; in assay [5] it was 16%.

B5: SEQ ID NO: 26 (peptide)
peptide: H-XRCF[dW]KTY[N(2-mercaptoethyl)Gly]-NH2
modifications: disulfide 3-9; not fully specified (residue 1); printed as H-Phe1-Arg2-Cys3-Phe4-D-Trp5-Lys6-Thr7-Tyr8-NTEG9-NH2 (cyclo 3-9)
For the molecule B5, the % displacement at 1 nM in assay [1] was found to be 0%; in assay [2], 53%; in assay [3], 0%; in assay [4], 0%; in assay [5] it was 0%. Moreover, the % displacement at 10 nM in assay [1] came to 0%; in assay [2] it was 86%; in assay [3], 24%; in assay [4] it was 0%; in assay [5] it was 1%.
